Measurements: the RNAGym collection of RNA variant scans (doi:10.1101/gr.219683.116)

B1: mRNA-splicing (parent)
chain: AGUUGCUGCUGGGAGCUCCAGCACAGUGAAAUGGACAGAAGGGCAGAGCAA

Variants of: B1
Assay: exon inclusion enrichment index; higher = more inclusion; WT1 exon 5 minigene, HEK293

Variant | exon inclusion enrichment index
AGUUCUAUAUGGGAGCUCCAGCACAGUGAAAUGGACAGAAGGGCAGAGCAA | 0.195
AGUUCUUUUCGGGAGCUCCAGCACAGUGAAAUGGACAGAAGGGCAGAGCAA | 0.615
AGUUCUCAUCGGGAGCUCCAGCACAGUGAAAUGGACAGAAGGGCAGAGCAA | 1.99
AGUUCCACUCGGGAGCUCCAGCACAGUGAAAUGGACAGAAGGGCAGAGCAA | 0.259
AGUUCUGGCCGGGAGCUCCAGCACAGUGAAAUGGACAGAAGGGCAGAGCAA | 0.82
AGUUCUUUCCGGGAGCUCCAGCACAGUGAAAUGGACAGAAGGGCAGAGCAA | 1.11
AGUUCCCGACGGGAGCUCCAGCACAGUGAAAUGGACAGAAGGGCAGAGCAA | 0.262
AGUUCCGGAUGGGAGCUCCAGCACAGUGAAAUGGACAGAAGGGCAGAGCAA | 1.66
AGUUCUCCUCGGGAGCUCCAGCACAGUGAAAUGGACAGAAGGGCAGAGCAA | 1.73
AGUUCUUCUCGGGAGCUCCAGCACAGGAAAAUGGACAGAAGGGCAGAGCAA | 2.11
AGUUCUUCUCGGGAGCUCCAGCACAGGCAAAUGGACAGAAGGGCAGAGCAA | 1.04
AGUUCUUCUCGGGAGCUCCAGCACAGGUAAAUGGACAGAAGGGCAGAGCAA | 0.00454
AGUUCCAGAAGGGAGCUCCAGCACAGUGAAAUGGACAGAAGGGCAGAGCAA | 0.367
AGUUCUUCCCGGGAGCUCCAGCACAGUGAAAUGGACAGAAGGGCAGAGCAA | 2.2
AGUUCUUCCGGGGAGCUCCAGCACAGUGAAAUGGACAGAAGGGCAGAGCAA | 1.68
AGUUCUUCCAGGGAGCUCCAGCACAGUGAAAUGGACAGAAGGGCAGAGCAA | 0.518
AGUUCCCCUCGGGAGCUCCAGCACAGUGAAAUGGACAGAAGGGCAGAGCAA | 0.0413
AGUUCUGAUCGGGAGCUCCAGCACAGUGAAAUGGACAGAAGGGCAGAGCAA | 1.49
AGUUCUGGUCGGGAGCUCCAGCACAGUGAAAUGGACAGAAGGGCAGAGCAA | 0.743
AGUUCUGGAUGGGAGCUCCAGCACAGUGAAAUGGACAGAAGGGCAGAGCAA | 1.42
AGUUCUUCUCGGGAGCCGCAGCACAGUGAAAUGGACAGAAGGGCAGAGCAA | 2.39
AGUUCUUCUCGGGAGCCUCAGCACAGUGAAAUGGACAGAAGGGCAGAGCAA | 1.9
AGUUCUUCUCGGGAGCCACAGCACAGUGAAAUGGACAGAAGGGCAGAGCAA | 1.45
AGUUCUUCUCGGGAGCUCCAGCACAGUGAAAAAGACAGAAGGGCAGAGCAA | 0.758
AGUUCUUCUCGGGAGCUCCAGCACAGUGAAAACGACAGAAGGGCAGAGCAA | 2.37
AGUUCUUCUCGGGAGCUCCAGCACAGUGAAAAUGACAGAAGGGCAGAGCAA | 1.25

Variant | exon inclusion enrichment index
AGUUCUGUUCGGGAGCUCCAGCACAGUGAAAUGGACAGAAGGGCAGAGCAA | 1.07
AGUUCCUUUUGGGAGCUCCAGCACAGUGAAAUGGACAGAAGGGCAGAGCAA | 0.0356
AGUUCUUCUGGGGAGCUCCAGCACAGUGAAAUGGACAGAAGGGCAGAGCAA | 1.12
AGUUCCAUAUGGGAGCUCCAGCACAGUGAAAUGGACAGAAGGGCAGAGCAA | 0.077
AGUUCCCGCCGGGAGCUCCAGCACAGUGAAAUGGACAGAAGGGCAGAGCAA | 0.696
AGUUCUUCUCGGGAGCUCCAGCACAGCCAAAUGGACAGAAGGGCAGAGCAA | 2.52
AGUUCUUCUCGGGAGCUCCAGCACAGCUAAAUGGACAGAAGGGCAGAGCAA | 1.2
AGUUCUUCUCGGGAGCUCCAGCACAGCAAAAUGGACAGAAGGGCAGAGCAA | 1.89
AGUUCCGACAGGGAGCUCCAGCACAGUGAAAUGGACAGAAGGGCAGAGCAA | 0.113
AGUUCCGCUCGGGAGCUCCAGCACAGUGAAAUGGACAGAAGGGCAGAGCAA | 0.323
AGUUCUUCUCGGGAGCAGCAGCACAGUGAAAUGGACAGAAGGGCAGAGCAA | 1.83
AGUUCUUCUCGGGAGCAUCAGCACAGUGAAAUGGACAGAAGGGCAGAGCAA | 1.58
AGUUCUUCUCGGGAGCAACAGCACAGUGAAAUGGACAGAAGGGCAGAGCAA | 1.32
AGUUCUCGCCGGGAGCUCCAGCACAGUGAAAUGGACAGAAGGGCAGAGCAA | 3.59
AGUUCUGACAGGGAGCUCCAGCACAGUGAAAUGGACAGAAGGGCAGAGCAA | 0.0911
AGUUCCCACAGGGAGCUCCAGCACAGUGAAAUGGACAGAAGGGCAGAGCAA | 0.03
AGUUCCCACCGGGAGCUCCAGCACAGUGAAAUGGACAGAAGGGCAGAGCAA | 0.327
AGUUCUUCUCGGGAGCUCCAGCACAGUGAAAGUGACAGAAGGGCAGAGCAA | 0.774
AGUUCUUCUCGGGAGCUCCAGCACAGUGAAAGCGACAGAAGGGCAGAGCAA | 1.97
AGUUCUUCUCGGGAGCUCCAGCACAGUGAAAGAGACAGAAGGGCAGAGCAA | 0.468
AGUUCCUCUCGGGAGCUCCAGCACAGUGAAAUGGACAGAAGGGCAGAGCAA | 0.273
AGUUCCUACAGGGAGCUCCAGCACAGUGAAAUGGACAGAAGGGCAGAGCAA | 0.0176
AGUUCUAAUCGGGAGCUCCAGCACAGUGAAAUGGACAGAAGGGCAGAGCAA | 0.757
AGUUCUAGCCGGGAGCUCCAGCACAGUGAAAUGGACAGAAGGGCAGAGCAA | 0.444
AGUUCUAACAGGGAGCUCCAGCACAGUGAAAUGGACAGAAGGGCAGAGCAA | 0.064
